Assay: yeast display, Sf9 membrane polyspecificity reagent, FACS + sequencing; frameworks hold sequencing errors
Outline: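 Sorting gates, low and high (top ~1%), were placed on anti-HA fluorescence to track expression and on streptavidin fluorescence to track reagent binding. A clone's polyreactivity label is taken from the gate it came out of. The reagent was 10% biotinylated, detergent-solubilized Sf9 membrane, applied for 1 hour at 4 °C to galactose-induced yeast display cells.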

Sequence | polyreactivity (PSR sort gate)
QVQLVESGGGLVQAGGSLRLSCAASGSTLDGYGMRWYRQAPGKERELVAVITIGGGRTYYADSVKGRFTISRDNAKNTVYLQMNSLKPEDTAVSYCAAKGWRRYYIGDYWGQGTQVTVSS | high polyreactivity
QVQLVESGVGLVQAGGSLRLSCAASGSTFITYAMGWYRQAPGKERELVAAISTGGSTYYADSVKGRFTISRDNAKNTVYLQMNSLKPEDTAVYYCNAYSSSRGSTLQYSLQYDYWGQGTQVTVSS | low polyreactivity
QVQLVESGGGLVQAGGILRLSCAASGRTFSSNAMGWYRQAPGKERELVAVISSGGSTYYADSVNGRFTISRDNAKNTVYLQLNSLKPEDTAVYYCAAAGGPSGYYYESDYWGQGTQVTVSS | high polyreactivity
QVQLVESGGGLVQAGGSLRLSCAASGFIFLDNAMGWNRQAPGKERELVDAISSTGSTYADSVKGRFTISRDNAKNTVYLQMNSLKPEDTAVYYCAADIEVSWDDDGYYPEYDYWGQGTQVTVSS | low polyreactivity
QVQLVESGGGIVKAGGSLGISCAASGRIFDYYDMLWYRQAPGKERELVAAITQSGGSTNYADSVKGRFTISRDNAKNTVYLQMNSLKPEDTAVYYCAGVGYYTKRRFGYWGQGTQVTVSS | high polyreactivity
QVQLVESGGGIVQAGGSLRLICAASGFTFGEYAMGRYRQAPGKERELVAAISRGTSTYYADSVKGRFTISRDNAKTTVYLQMNSLKPEDTAVYYCAADWGGLWFWYEYWGQGTQVTVSS | low polyreactivity
QDQLVESGGGLVQAGGSLRLSCAASGSTFSGYGMGWYRQAPGKERELVAAITSSGGRTYYADSVKGRFTISRDNAKNTVYLQMNSLKPEDTAVYYCAALYYHEYDYWGQGTQVTVSS | low polyreactivity
QVQLVESGGGIVQAGGSLRLSSAASGSTFYAYTMGWYRQAPGKERELVAAISSGGGTYYADSVKGRFTISRDNAKNTVYLQMNSLKPEDTAVYYCNADWRVGRQLSKAKIPYDYWGQGTQVTVSS | low polyreactivity
QVQLVESGGGLVQAGGSLRLSCSASGSIFGFYAMGWYRQEPGKERELVAAIDSGDSTNYADSVKGRFTISRDNAKNTVYLQMNSLKPEDTAVYYCNARYTLFARYGYDYWGQGTQVTVSS | low polyreactivity
QVQLVESGGGLLQAGGSLRLSCAASGITFERNGMGWYRQAPGKERELVAAIRSGGSTYYADSVKGRFTISRDNAKNTVYLQMNTLKPEDTGVYYCAAVTQGGYTYLGDYWGQGTQVTVSS | low polyreactivity
QVQLVESGGGLVQAGVSLRLSCAASGSILRQYAMGWYRQAPGKEWELVAAITGSGGSTSYADSVKGRFTISRDNAKNTVYLQMNSLKPEDTAVYYCNAYLSSRTRSTYGSLRMDYWGPGTQVTVSS | high polyreactivity
QVQLVESGGGLVQAGGSLRLSCADSGLIFTANDRGWYRQAPGKERELVADISKSGSSTYYADSVKGRFTISRDNAKNTVYLQMNSLKPEDTAVYYCNADYLTYFTTFDYWGQGTQVTVSS | low polyreactivity
QVQLVESGGGLVQAGGSLRLSCAASGRIFVHYVMGWYRQAPGKERELVAAITVSGGGTYYADSVKGRFTISRDNAKNTVYFQMNSLTPEDTAVYYCNAVPHPYDWGQGTQLTVSS | low polyreactivity
QVQLVESGGGLVQAGGSLRLSCAASGSIFTEDAMGWYRQAPGKERELVAAISWSGATTYYADSVKGRFTISRDKAKNPVDLQMNSLKPEDTAVYYCAARWANRSYEYWGQGTQVTVSS | low polyreactivity
QVQLVESGGGLVQAVGRLRLSCAASGRTFYYNGMGWYRQAPGKERELVAAISSGGTTSYADSVKGRFTISRDNAKNTVYLQMNSLKPEDTAVYYCNVYDKAPAYDYWGQGTQVTVSS | low polyreactivity
QVQLVESGGGLVQAGGSLRLSCAASGSIFRVYAMGWYRQAPGKERELVAAISTRGGSTYYADSVKGRFTISRDNAKNTVYLQMNSLNPEDTAVYYCAKRWPQYPDYKPMYYWGQGTQVTVSS | high polyreactivity

Sequence | polyreactivity (PSR sort gate)
QVQLVESGGGLVQAGGSLRLSCAASGGIFGRYAMGWYRQAPGKERELVAGLSYSGGSTYYADSVKGRFTISRDNEKNTVYLQMTSLKAEDTAVYYCAADTRRTYENYYWGQGTQVTVSS | high polyreactivity
QVQLVESGGGLVQAGGSLRLSCAASGSIFGNNVMGWYRQAPGKERELVAAITSGTSTYYADSVKGRFTISRDNAKNTVYLQMNSLKPEDTAVYYCAALWSSRYVVHPQWYDYWGQGTQVTVSS | low polyreactivity
QVQLVDSGGGLVQAGGSLRLSCAASGRTSYENAMGWYREAPGKERELVAAINVSGGSTYYADSVKGRFTISRDNAKNTVYLQMNSLKPEDTAVYYCAADNPYADARSSWYEYNDWGQGTQVTVSS | high polyreactivity
QVQLVESGGGLVQAGGSLRLSCAASGFIFRLYDMVRYRQAPGKERELVAAISSGGRTNYADSVKGRFTISSDNPKNTVYLQMNSLKPEDTAVYYCAARSIFGYRSYGYWGQGTQVTVSS | high polyreactivity
QVQLVESGGGVVQAGGSLRLSCAASGSIVYSYAMGWYRQAPGKERELVARIRWGGGRTYYADSVKGHFAISRDNAKNTVYLQMNSLKPEDTAVYYCAASYVYPASFHYYYWGQGTQVTVSS | high polyreactivity
QVQLVESCGGLVQAGGSLRLSCAASGLTFYRYAMGWYRQAPGKERELVAAISSADRTYYADSVKGRFTISRDNAKNTVYLQMNSLKPEDTAVYYCAARANYFGWTKSYYYWGQGTQVNVSS | high polyreactivity
QVQLVESGGGLVQAGGSLRLSCAASGRTFYRNAMGWYRQAPGKERELVAAISSDDSTNYADSVKGRFTISRDNAKNTVYLQMNSQKPEDTAVYYCNADYYYGYEYDYWGQGTQVTVSS | low polyreactivity
QVQLVESGGGLVQAGGSLRLSCAASGSTFNRNAMGWYRQAPGKERDLVAAISWRGDTTSYADSVKGRSTISRDNAKNTFYLQMNSLNPEDTAVYYCATAHDYAFYRYWYVPSEYNYWGQGTQVTVSS | low polyreactivity
QVQLVESGGGLVQAGGSLRLSCAASGRIFATNGMGWYRQATGKERELVATSTRSAGRTYYADSVKGRFTISRDNAKNTVYLQMNSLKPEDTAVYYCAADGYSTAVDDTVRYIVEYEYWGQGTQVTVSS | low polyreactivity
QVQLVESGGGLVQAGGSLRLSCAASGIIFQSYTMGWYRQAPGKERELVAAIDSGGSTYYADSVKGRFTISRDNAKNTVYVQMNSLKPEDSAVYYCATDYPLYWSTLYDYDYWGQGTQVTVSS | low polyreactivity
QVQLVESGGALVQAAGSLRLICAASVIISGCNGMGWYRQAPGKERELVASISDSGSSTYYADSVKGRFTISRDNAKNTVYLQMNSLKPEDTAVYYCATDLLASRYGYWGQGTQVTVSS | low polyreactivity
QLQLVESGGRLVQAGGSLRLSCAATGFTFGGYAMGWYRQAPGKESELVARIRRSGGSTYYADSVKGRFTISRDNAKNTVYLQMTSLKPEDTAVYYCAAGYSRGQYRYNYWGQGTQVTVSS | high polyreactivity
QVQLVESGGGLVQAGGSLRLSCAASGRTFYGYAMGWYRQAPGKERELVAAISRSGGRTYYADSVKGRFTISRDNAKNTVYLQMNSLKPEDTAVYYCAAYSVYASPDDYWGQGTQVTVSS | high polyreactivity
QVQHVESGGGIVQAGGSLRLSCSASGSTFFYNTMGWYRHAPGKERELVAAISYRTGSTYYADSVKGRFTISRDNAKNSVYLQMNSLKTEDTAVYYCNARYPYRYGYWGQGTQVTVSS | high polyreactivity
QVQLVESGGGLVQAGGSLSLSCAASGSIFWRNAMGWYRPAPGKERELVAAITSGGSTYYADSVKGRFTISRDNAKNTVYLQMNSLKPEDTAVYYCAAGYSYRYDYWGQGTQVTVSS | low polyreactivity
QVQLVESGGGLVQAGGSLRLSCAASGRIFSFNAMGWYRQAPGKERELVAAISWSTGSTFYADSVKGRFTISRDNAKNTVYLQMNSLKPEDTAVYYCAREYYYRRGFFLRGYWGQGTQVTVSS | high polyreactivity

— the nanobody polyreactivity screen of Harvey et al. (2022)
